Test results: patent US20230349919A1 (Regeneron, published 2023)
Positions count from the first letter of the chain named.

Assays:
[1] = target: T1, Der p 2 (house dust mite, UniProt P49278 18-146); assay: antigen specificity score against Ole e 1 from barcode counts of single IgE PCs [cont.]
T1 construct: Also used oligonucleotide-barcoded for cell staining
T1 sequence (looked up): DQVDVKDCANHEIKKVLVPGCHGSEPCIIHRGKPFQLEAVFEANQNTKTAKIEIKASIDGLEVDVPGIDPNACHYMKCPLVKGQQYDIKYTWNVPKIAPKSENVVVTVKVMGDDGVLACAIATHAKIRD
Method: Antigen specificity score (AgSS) for IgG were calculated by subtracting the quantile of hIL-6Rα barcoded UMI counts multiplied by a penalty factor (x) from the quantile of hIL-4Rα barcoded UMI counts, AgSS=Q_hIL-4Rα-Q_hIL-6Rα^x. AgSS for IgE were calculated with a similar formula for mouse and human single cell data. For IgE scores the target antigens were either Der p1, Der p2 or Der f1 and the control was always Ole e1.
Following processing of the three single-cell libraries, the gene expression and V(D)J region sequencing data were used to subset PCs with a valid IgE constant region and detectable expression of IgE and CD79a but lacking the expression of Ms4a1 and CD19 typically found in non-PC B cells. IgE-expressing PCs were then assessed for differential expression against additional IgA, IgG, and IgM plasma cell isotypes to further characterize the unique transcriptional signature of IgE-secreting PCs. IgE-secreting PCs were then assessed for antigen specificity by comparing the normalized levels of the target antigens, namely, Der p 1, Der p 2, or Der f 1, against the normalized level of the control antigen Ole e 1. This was performed by calculating an empirical score for each target antigen and subtracting the […] with a penalty factor. The formula used to do is set forth below: […]

[2] = target: T1, Der p 2; assay: barcoded antigen sequencing of single IgE PCs with trapped IgE
[3] = target: T1, Der p 2; assay: barcoded antigen sequencing of single IgE PCs with trapped IgE [cont.]
Excerpt: (§1) The barcoded antigen library was mapped by the CellRanger software to a custom short-read reference that contained the DNA tag sequences of the four barcoded antigens, namely, Der p 1, Der p 2, Der f 1 and Ole e 1. These tag sequences were quantified across all cells and were normalized by taking the centered log-ratio (CLR) per barcoded antigen across each sample capture. In addition, background antigen signal for each barcoded antigen was removed by DSB (Denoised and Scaled by Background). Both the CLR and the DSB normalized values were used to quantify the target antigen signals, namely, those for Der p 1, Der p 2 and Der f 1, against the control signal, namely, that for Ole e 1.

[4] = target: T2, Ole e 1 (olive, UniProt P19963 1-145); assay: centered log-ratio of barcode count
T2 construct: Also used oligonucleotide-barcoded for cell staining; also called olive allergen; negative control allergen
T2 sequence (looked up): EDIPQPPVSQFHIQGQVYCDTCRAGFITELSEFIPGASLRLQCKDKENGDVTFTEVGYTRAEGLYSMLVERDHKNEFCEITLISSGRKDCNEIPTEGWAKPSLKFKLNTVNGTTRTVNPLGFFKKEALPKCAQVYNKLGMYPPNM
Excerpt: as §1

[5] = target: T1, Der p 2; assay: centered log-ratio of barcode count
Excerpt: as §1

[6] = target: T1, Der p 2; assay: ELISA, coated Der p2
Method: After selecting allergen-specific antibodies, relative binding to Der p 1, Der p 2, and Der f 1 were quantified by ELISA. […] Specifically, binding microtiter plates were coated with 100 μl of 2 μg/mL of natural Der p 1, Der p 2, Der f 1, and Ole e 1 in PBS overnight at 4′C. IgE antibodies were prepared at a concentration of 1 μg/mL and serially diluted three-fold in PBS with 0.5% w/v BSA. After washing with 0.05% v/v Tween® 20 in PBS and blocking in PBS with 0.5% w/v BSA, 100 μl of the diluted IgE antibodies were transferred to the plates and incubated for one hour at ambient temperature. Subsequently, 100 μL of anti-mouse IgE antibody conjugated to horse-radish peroxidase (HRP) diluted at 1:5000 was added. The plates were then incubated for one hour at ambient temperature, and washed in 0.05% v/v/Tween® 20 in PBS. Subsequently, the HRP substrate 3,3′,5,5′-tetramethylbenzidine (TMB) was added. The reaction was stopped (with 100 μL of sulfuric acid 2.0 N) and optical density values determined using a plate reader at 450 nm.

[7] = target: T1, Der p 2; assay: barcode rank score against control Ole e 1
[8] = target: T2, Ole e 1; assay: barcoded-antigen count on source cell
[9] = target: T1, Der p 2; assay: barcoded-antigen count on source cell
[10] = target: T3, human IL-4Rα (hIL-4Rα) monomeric protein (human, UniProt P24394 26-232, limits assumed); assay: Biacore (SPR); negative log10 of Kd
T3 construct: also called hIL-4Rα antigen; barcoded hIL-4Rα

[11] = target: T3, human IL-4Rα (hIL-4Rα) monomeric protein; assay: Biacore (SPR)
[12] = target: T3, human IL-4Rα (hIL-4Rα) monomeric protein; assay: barcoded-antigen count on source cell (scRNA-seq)

B1: Candidate ID 16 (antibody, V domains shown)
VH: EVHLQQSGPDLVKPGASVMISCQASGYSFTAYYINWVKQSPEKSLEWIGEINPGSGGVIYNRKFEAKATLIVDKSSNTAFMLLTRLTSEDSAIYYCARKGFYQFDYWGQGTTLTVSS
VL: SVVMTQIPKFLVVSAGDRVTITCKASQSVNDGVFWYQQKTGQSPKLVIYHTSNRYTGVSDRFTGSGYGTEFTFTISAVQSEDLAIYFCQQDYTSPLTFGGGTRLEIK
notes: IgE PCs LN
Antigen Score [1]: 0.336
Raw Antigen Barcode Count [2]: 6
Normalized Barcode Count [3]: 0.58

B2: IgE mAb 17_2 (antibody, V domains shown)
VH: B1 VH
VL: B1 VL
notes: IgE (IGHE, IGKC) from HDM-exposed mouse, LymphNode
Olee1_ab_clr [4]: 0.603
Derp2_ab_clr [5]: 0.58
binding result [6]: no binding (tested: about 6e-9 M (log10 M about -8.25))
Derp2_ab_rank [7]: 0.336
Olee1_ab_raw [8]: 3 counts
Derp2_ab_raw [9]: 6 counts

B3: IgE mAb 8_2 (antibody, V domains shown)
VH: QVLLKESGPGLVAPSQSLSITCTVSGFSLTSYGVSWVRQPPGKGLEWLGVIWGDGNTDYHSALISRLSIRKDNSKSQVFLKLNSLQTDDTATYYCAIGSPFAYWGQGTLVTVSA
VL: DVLMTQTPLSLPVSLGDQVSISCRSSQNIVHSTGNTYLEWYLQKPGQSPKLLIFKVSNRLSGVPDRFSGSGSGTDFTLNISRVEAADLGIYSCFQGSHVPFTFGSGTKLEIK
notes: IgE (IGHE, IGKC) from HDM-exposed mouse, BoneMarrow
Olee1_ab_clr [4]: -1.13
Derp2_ab_clr [5]: 0.655
Derp2_ab_rank [7]: 0.837
Olee1_ab_raw [8]: 0 counts
Derp2_ab_raw [9]: 22 counts

B4: Table 1 Line # 25 antibody (SP_B_cell) (antibody, human IgG4, V domains shown)
VH: EVQLVESGGTVERPGGSLRLSCAASGFTFDDYGMSWVRQAPGKGLEWVSGTSWNGGHIGYADSVKGRFIISRDNAKNSLYLQINSLRVEDTALYYCTRDSTSSWYGVFDFWGQGTLVTVSS
VL: DIQMTQSPSSLSASVGDRVTITCRASQDISINLAWYQQKPGKTPKLLIYAAASTLQSGVPSRFSGSGSGTDFTLTISSLQPEDVATYYCQNYNSAPRTFGQGTKVEIK
notes: Cloned with human IgG4/human Igk constants for Kd; barcode counts are of the source cell's own IgG
negLog10Kd [10]: 7.01
Kd [11]: 97.6 nM
REGN560.L15_ab_raw [12]: 10600 counts

B5: IgE mAb 13_2 (antibody, V domains shown)
VH: EVQLQQSGPELVKPGASVKISCKASGYTFTDYYMNWVKQSHGKSLEWIGDINPNNGGTSYNQKFKGKATLTVDKSSSTAYMELRSLTSEDSAVYYCAYGPPRGPPWFAYWGQGTLVTVSA
VL: DIVLTQSPASLAVSLGQRATISCRASKSVSTSGYSYMHWYQQKPGQPPKLLIYLASNLESGVPARFSGSGSGTDFTLNIHPVEEEDAATYYCQHSRELPWTFGGGTKLEIK
notes: as for B2
Olee1_ab_clr [4]: 0.0287
Derp2_ab_clr [5]: 1.62
Derp2_ab_rank [7]: 0.858
Olee1_ab_raw [8]: 1 counts
Derp2_ab_raw [9]: 46 counts

B6: Table 1 Line # 26 antibody (SP_B_cell) (antibody, human IgG4, V domains shown)
VH: QVQLQQSGPGLVKPSQTLSLTCAISGDSVSSNIATWNWIRQSPSRGLECLGRTYYRSKWYSDYAVSVKSRITINPDTSKNQFSLQLNSVTPEDTAVYYCARGWNYGYYFDYWGQGTLVTVSS
VL: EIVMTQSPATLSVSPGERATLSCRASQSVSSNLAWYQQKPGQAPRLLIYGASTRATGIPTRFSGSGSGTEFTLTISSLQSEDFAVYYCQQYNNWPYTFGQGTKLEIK
notes: as for B4
negLog10Kd [10]: 6.95
Kd [11]: 112 nM
REGN560.L15_ab_raw [12]: 10400 counts

B7: Table 1 Line # 28 antibody (SP_B_cell) (antibody, human IgG4, V domains shown)
VH: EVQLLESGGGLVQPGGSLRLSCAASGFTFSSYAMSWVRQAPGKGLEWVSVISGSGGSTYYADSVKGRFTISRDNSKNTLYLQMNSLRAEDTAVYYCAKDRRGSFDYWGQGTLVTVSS
VL: DIQMTQSPSSVSASVGDRVTITCRASQGISSWFAWYQQKPGKAPKLLIYAASSLLSGVPSRFSGSGSGTDFTLTISSLQPEDFATYYCQQANSFPFTFGPGTKVDFK
notes: as for B4
negLog10Kd [10]: 6.84
Kd [11]: 146 nM
REGN560.L15_ab_raw [12]: 9450 counts

B8: Table 1 Line # 29 antibody (SP_B_cell) (antibody, V domains shown)
VH: EVQLLESGGGLVQPGGSLRLSCAASGFTFSSYAMSWVRQAPGKGLEWVSAISGSGGSTYYADSVKGRFTISRDNSKNTLYLQMNSLRAEDTAIYYCARYGNWNYIWGQGTLVTVSS
VL: B7 VL with F33L, L55Q, F96L, P100G, D105E, F106I
negLog10Kd [10]: 7.26
Kd [11]: 54.8 nM
REGN560.L15_ab_raw [12]: 9190 counts

B9: Table 1 Line # 32 antibody (SP_B_cell) (antibody, human IgG4, V domains shown)
VH: EVQLVESGGGLVQPGRSLRLSCAASGFTFDDYAMHWVRQAPGKGLEWVSGVNWNGVSLGYADSVKGRFTISRDNAKNSLYLQMNSLRAEDTAFYYCAKDSGSYHYYYGMDGWGQGTTVTVSS
VL: DIQMTQSPSSLSASVGDRVTITCRASQGIRNDLGWYQQKPGKDPKRLIFAATNLHGGVPSRFSGGVSGTEFTLTISSLQPEDFATYYCLQHNSYPLTFGGGTKVEIK
notes: as for B4
negLog10Kd [10]: 7.24
Kd [11]: 58.1 nM
REGN560.L15_ab_raw [12]: 7910 counts

B10: Table 1 Line # 3 antibody (BM_Plasma_cell) (antibody, human IgG4, V domains shown)
VH: EVQLVESGGGLVQPGRSLRLSCAASGFTFDDYAMHWVRQVTGKGLEWVSGINWNSGNIGYADSVRGRFTISRDNAKNSLYLQMNSLRAEDTALYYCAKDSGSSWYGYFDLWGRGTLVTVSS
VL: DIQMTQSPSTLSASVGDRVTITCRASQSISRWLAWYQQKPGKAPKFLIYKASSLESGVPSRFSGSGSGTEFTLTISSLQPDDFATYYCQQYNSDSRTFGQGTKVEIK
notes: as for B4
negLog10Kd [10]: 6.27
Kd [11]: 537 nM
REGN560.L15_ab_raw [12]: 6320 counts

B11: Table 1 Line # 5 antibody (BM_Plasma_cell) (antibody, V domains shown)
VH: QVQLVQSGAEVKKPGASVKVSCKASGYTFTGYYIYWVRQAPGQGLEWMGWINPNSGGTNYAQKFQGRVTMTRDTSISTVYMELSRLRSDDAAVYYCAKRKRGLDGWGQGTTVTVSS
VL: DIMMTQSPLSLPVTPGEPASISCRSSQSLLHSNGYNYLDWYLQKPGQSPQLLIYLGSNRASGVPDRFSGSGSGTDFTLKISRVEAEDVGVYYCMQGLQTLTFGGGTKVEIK
notes: as for B4
negLog10Kd [10]: 7.62
Kd [11]: 23.8 nM
REGN560.L15_ab_raw [12]: 4410 counts

B12: Table 1 Line # 6 antibody (BM_Plasma_cell) (antibody, human IgG4, V domains shown)
VH: EVQLVESGGDLVQPGRSLRLSCAASGFTFDDYAMHWVRQAPGKGLEWVSGISWNGNSLGYVDSVKGRFTVSRDNAKNSLYLQMNSLRAEDTALYYCTKDTGSYHSYYGLDVWGQGTTVTVSS
VL: B9 VL with D43A, F49Y, T52S, N53S, H55P, G56S, G65S, V66G, H91L, S93T
notes: as for B4
negLog10Kd [10]: 6.87
Kd [11]: 136 nM
REGN560.L15_ab_raw [12]: 4140 counts

B13: Table 1 Line # 12 antibody (BM_Plasma_cell) (antibody, human IgG4, V domains shown)
VH: QVQLVESGGGVVQPGRSLRLSCAASGFTFSSYGMHWVRQAPGKGLEWVSVISYDGSNKYYADSVKGRFTISRDNSKNTLFLQVNSLRAEDTAVYYCAKEGRTGFDYWGQGTLVTVSS
VL: DIQMTQSPSSLSASVGDRVTITCRARQGISNYLAWFQQKPGKVPKLLIYAASTLQSGVPSRFSGSGSGTDFTLTISSLQPEDVATYYCQKYNSAPWTFGQGTKVEIK
notes: as for B4
negLog10Kd [10]: 7.46
Kd [11]: 34.5 nM
REGN560.L15_ab_raw [12]: 3180 counts
